Experimental data as given in patent CN114028562A (JIANGSU QYUNS BIOMEDICAL CO LTD, dated 2022).

B1: QX008N(HZD8G2-57) (antibody, V domains shown)
VH: EVQLVESGGGLVQPGGSLRLSCAASGFSLSSYYMSWVRQAPGKGLEWVGFISYGGSAYHATWAQGRFTISKDNSKNTLYLQMNSLRAEDTAVYYCAREFRSMTYGAEWGIWGQGTLVTVSS
VL: AYQMTQSPSSVSASVGDRVTITCQASESIYDTLAWYQQKPGKAPKLLIYSASSLASGVPSRFSGSGSGTDFTLTISSLQPEDFATYYCQQGYTMPDVDKNPFGGGTKVEIKR
B2: Tezepelumab (antibody, V domains shown)
VH: QMQLVESGGGVVQPGRSLRLSCAASGFTFRTYGMHWVRQAPGKGLEWVAVIWYDGSNKHYADSVKGRFTITRDNSKNTLNLQMNSLRAEDTAVYYCARAPQWELVHEAFDIWGQGTMVTVSS
VL: SYVLTQPPSVSVAPGQTARITCGGNNLGSKSVHWYQQKPGQAPVLVVYDDSDRPSWIPERFSGSNSGNTATLTISRGEAGDEADYYCQVWDSSSDHVVFGGGTKLTVLG

How the values were obtained:
[1] = molecular target: T1, 人胸腺基质淋巴细胞生成素(Human Thymic Stromal Lymphopoietin, TSLP) (human, UniProt Q969D9 29-159); experiment: cell-based or functional assay
食蟹猴TSLP = 食蟹猴TSLP (cynomolgus monkey, UniProt A0A7N9CAT7 29-159); experiment: cell-based or functional assay
Chain of 食蟹猴TSLP (A0A7N9CAT7 entry or part of it): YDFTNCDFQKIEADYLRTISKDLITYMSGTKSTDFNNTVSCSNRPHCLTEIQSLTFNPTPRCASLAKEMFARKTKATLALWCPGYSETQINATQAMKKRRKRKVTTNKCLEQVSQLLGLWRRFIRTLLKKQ

[2] = molecular target: T1, 人胸腺基质淋巴细胞生成素(Human Thymic Stromal …); experiment: SPR, Biacore T200, 25°C, antibody captured on Protein A chip, TSLP as analyte, 1:1 model, mean of three runs

Row | Binder | IC50, inhibition of human TSLP-induced STAT5 phosphorylation in SW756-STAT5-Luciferase reporter cells [1] | IC50, inhibition of human TSLP-induced TARC(CCL17) release from human PBMC [1] | IC50, inhibition of human TSLP-induced TARC(CCL17) release from human whole blood [1] | IC50, inhibition of cynomolgus TSLP-induced STAT5 phosphorylation in SW756-STAT5-Luciferase reporter cells (食蟹猴TSLP) | Kd [2] | koff [2] | kon [2]
1 | B1 | 0.837 ng/mL | 77.1 ng/mL | 0.839 ng/mL | 0.889 ng/mL | 0.0175 nM | 2.99e-05 s⁻¹ | 1.74e+06 M⁻¹ s⁻¹
2 | B2 |  |  |  | 1.88 ng/mL |  |  | 
